The supplement of paper PMC6755084

B1: F1*; the commonest letter at each place (parent)
chain: GAGACCGCAACTGAAAAGTTGTTATCACTTGTCGTAAGACACTTTGGATGGGTTGAAGTTCTGCACGTAGAAGCAAAAGGC

Variants of: B1
Experiment: fraction ligated after 30 min (ligated reads / total reads); higher = more ligase activity
Conditions: with F1*sub RNA substrate (template-directed ligation), 42 °C
Outline: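 Oligo-pool templates of ligase ribozyme variants were PCR-amplified, T7-transcribed and gel-purified. Ligated and unligated bands were gel-separated, reverse transcribed with barcoded primers, and MiSeq-sequenced; core bases were filtered at quality ≥20. Fraction ligated per variant was ligated reads over total reads.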

Variant	fraction ligated
G47C A57G	0.0599
G55C A56G A57T	0.0232
C40G A41T	0.768
C28T T49C	0.749
T29C A57C	0.797
G31T A37G	0.792
T29C A37T	0.833
G34T A48G	0.77
T25G G46C	0.135
T29G C42T	0.83
T43G G55C	0.247
T30C C42A	0.817
T30G C33T	0.867
A24G C28A	0.719
A27C C28T	0.819
G55T A56C A57G	0.00397
T43A T44G	0.804
T25G T45A	0.0602
C26T G38T	0.478
T35A A37G	0.844
C40A C42T	0.818
T35C A41G	0.783
A37C T43G	0.806
T35A G46C	0.799

Variant	fraction ligated
A27T G55C	0.749
T32G G46C	0.716
A27T G34C	0.795
T32A C40A	0.834
G38T G55T	0.798
A27G T32C	0.77
G50A A57T	0.216
T25C A36T	0.793
T30G G31C T32C A39G C40G A41C	0.846
C26G A41G	0.716
C26G A41T	0.459
A24T C42A	0.743
T30C A41G	0.828
C28T T35C	0.789
C33A C42T	0.872
C40T T43C	0.795
C33A T49A	0.725
T23C C42A	0.762
T54C	0.846
A27G T35A	0.847
T29A A57T	0.813
T23A T25A	0.652
G34T T43G	0.793
G31C T44G	0.781

Variant	fraction ligated
G38C T49A	0.233
T32C A41G	0.709
T22C	0.819
G38A G47T	0.324
G47A T49A	0.806
T43C A56T	0.755
C28A A36C	0.806
T43G G47C	0.447
T25C A39T	0.766
T32G T35A	0.814
T32G T35C	0.802
A24G T45G	0.0477
T29C C42T	0.828
C28T G50T	0.747
C26T A48G	0.756
T25A A57T	0.252
T29G G46A	0.832
T29G G46C	0.786
T25A T35A	0.751
C40G G46T	0.793
A39T A56T	0.807
A39T A56G	0.78
C28A T30C	0.804
T30C A39G	0.782

Variant	fraction ligated
T23A A24G	0.764
T29C A36G	0.841
A48C A57T	0.719
C28T T32C	0.753
T23A T43C	0.783
T23A T43G	0.81
G31T A56C	0.221
A27C T43G	0.765
G31C A56G	0.607
C26T G50A	0.0828
T35G G55A	0.819
A36G A37G	0.864
A39T T44G	0.827
A39T T44C	0.821
A39T T44A	0.79
G46C G47A	0.798
A56C A57C	0.447
G38A A57T	0.819
A41C T44A	0.764
C26G G50T	0.0691
T23A G55T	0.783
G38A T49G	0.785
C28G T30G	0.788
C42G A56C	0.801

Variant	fraction ligated
G31T T43C	0.78
T25G C42T	0.797
T30G T49G	0.808
A36G T45G	0.353
C33A G34A	0.834
T32C A36G	0.786
G38T T45A	0.783
A41C A56C	0.503
A41C A56T	0.615
G31T T32A	0.835
C28A C40G	0.824
C28G G31T	0.833
G31A G38A	0.796
G55T A56G A57G	0.0371
T29C G38A	0.803
G50A G55T	0.0307
A24C C40G	0.348
C26A A41G	0.761
T29A G34T	0.842
T29A G34C	0.816
C40A T44C	0.794
C40A T44A	0.823
A24G A36C	0.833
T30C G38T	0.795

Variant	fraction ligated
A24G A37T	0.764
C26A A39G	0.75
G47C G55A	0.11
C26A G46T	0.449
A24T T43A	0.678
C40G A57C	0.788
A24G A39C	0.504
T32A A41T	0.825
G38C A48T	0.0108
A36T A56C	0.797
A36T A56T	0.823
T45A G46C	0.0374
A37G T44C	0.869
C42T T45C	0.79
C42A A56C	0.794
A24T T32A	0.153
T30A C42T	0.852
C28T T43C	0.781
C42G T49A	0.79
C42G T49G	0.777
A41T T49A	0.686
T43G A48G	0.78
A36G C42T	0.849
G31A T32C	0.811

Variant	fraction ligated
T44G G50T	0.344
T23G A48T	0.781
A36C A56T	0.804
G31A G55A	0.823
G34A G50A	0.625
T25A G34T	0.718
A24C C28G	0.742
C33T C40A	0.875
T25G A39C	0.373
G34C G55A	0.838
C28A A56G	0.681
T32C A57C	0.76
C28A T32C	0.756
A36C A37T	0.837
A39C T49A	0.706
G38T G47A	0.762
T49G A56C	0.109
T45C G55T	0.134
C33A T45G	0.0419
T43A G46C	0.789
G31C G38A	0.811
C26G G46C	0.719
C28G A48C	0.405
C26A G31T	0.0438

Variant	fraction ligated
A24G T35G	0.774
T30G G55T	0.819
G31C A48C	0.242
T30A G47T	0.373
C26G C40T	0.678
T43A T49G	0.797
T25G A41G	0.492
G47A A56T	0.181
C33G A37G	0.847
A39T A48T	0.541
T30G G34A	0.825
C28T C40A	0.824
T29G T35G	0.813
C33T T49G	0.801
G46C A57T	0.76
C33G G46T	0.811
A27G G34T	0.804
G47A G50A	0.381
A36T G55T	0.836
A41G G47A	0.734
A24C G47T	0.0249
A37C A41G	0.79
C26T G55A	0.811
A24C A48T	0.0426

Variant	fraction ligated
T30G	0.843
T29A T35A	0.821
T43G A56C	0.713
T32C G46C	0.717
T23G T49G	0.761
T25G G47A	0.363
C40T G55C	0.782
C40T G55A	0.841
T29G T32C	0.809
C33A T43G	0.799
C40G T49A	0.683
A39G C42A	0.829
A39G C42G	0.834
G31A G50A	0.025
A39T C42A	0.846
T23C A37G	0.837
A27G G47C	0.583
T23C G46A	0.8
A24G A48C	0.729
A39G T49C	0.714
A24G T30G	0.79
G34A A39C	0.8
T32G A37C	0.815
G38A A56T	0.808

Variant	fraction ligated
T35A A56G	0.799
T29A A56T	0.827
A27T A41G	0.776
C26G T29C	0.749
C28T C33G	0.809
C28T C33A	0.816
C33A T35G	0.866
G34T A39G	0.808
G47T T49A	0.0948
A24G C26A	0.711
G31A A57T	0.796
A24T T44C	0.778
T43C A48G	0.764
G31C T32G	0.78
T25A G47T	0.253
T44A A48C	0.758
A36T G50C	0.467
T29G G31T	0.835
G46T T49A	0.192
C42T G46T	0.805
T25G T43A	0.684
A37T A41G	0.799
A37T A41C	0.785
C28A C42A	0.803

Variant	fraction ligated
G34A G46T	0.778
A39T A41G	0.769
T25A G55C	0.0483
A24C A37T	0.754
T30A G55C	0.741
T35G G46T	0.784
T43C G46T	0.776
G50T A57C	0.172
A39T T49C	0.0992
T44C T49C	0.494
T29G G38A	0.844
T25A C40A	0.134
A27G G38C	0.798
T23A A27C	0.82
C40G G50A	0.262
A36C T49A	0.767
A27T T35C	0.811
T23C G50T	0.782
C26A	0.788
T44G G46C	0.806
A24T A56G	0.0306
T30G A39T	0.779
C26T T44G	0.836
G31A A56C	0.161

Variant	fraction ligated
A27G G55C	0.554
A36C C40G	0.818
T25A T29A	0.582
T30G G31C T32G C33G G38C A39C C40G A41C	0.828
A36T G46T	0.791
T23C A41C	0.783
A24T T35G	0.772
C28T T30G	0.791
G31T C42T	0.822
G31T C42A	0.809
T32C G55T	0.75
A39C G50C	0.123
A27T C28T	0.798
A56T	0.803
T35A A36G	0.857
T25C A56C	0.0931
C26A A27G	0.747
T45G G50T	0.0316
T29G T44C	0.795
T32A G34A	0.809
T45G A57G	0.769
A24T T25C	0.779
C33A G50T	0.627
T32G G55A	0.803

Variant	fraction ligated
A27C G31T	0.789
T44G G47T	0.0521
A24C A27G	0.692
T23G G38T	0.81
G38A T44G	0.848
T43C	0.81
C40T G50T	0.784
T23C G38C	0.802
A37C	0.849
G34C T43G	0.809
T23G C33A	0.866
A48C T49C	0.335
T30A T32G	0.842
T35G A41T	0.839
T35G A41G	0.816
A39T T43G	0.772
A39T T43C	0.795
T35A G47A	0.811
C28T T29A	0.823
C40A A48T	0.0719
C28G A36C	0.759
A27T T44C	0.775
T35C T44C	0.841
T23G A24C	0.773

Variant	fraction ligated
T23G A24G	0.091
T45A A56T	0.793
G31C G34C	0.804
G38A T45G	0.0379
G31T A48G	0.49
T49A G55A	0.62
T23A G47C	0.0295
G46A G55A	0.786
G46A G55T	0.783
T44C G47A	0.772
A24G G38A	0.752
G31A A36C	0.8
A27T T30C	0.804
G47T G55T	0.0451
T44A G46T	0.81
T44A G46A	0.816
C26T A57T	0.852
C26T G46T	0.758
C33G A57C	0.847
C28G T45G	0.259
T29C G47T	0.508
A24G A27C	0.776
